The data set deals with the molecule itself. The experiment in a line: SDD-AGE; purified proteins loaded in 0.5 x TBE, 10% glycerol, 2% SDS at room temperature; 1.5% agarose gel with 0.1% SDS; immunoblot. Background: A western blot detects proteins with antibodies after separation by electrophoresis.

B1: GST-tagged dTrbd^FL (enzyme, Drosophila melanogaster, UniProt Q9VH90 1-778, looked up)
chain: MCDTKDDAQKWKCETCTYENYPSSLKCTMCQASKPLLNEDIFRLSPAQESCTVAEEAAAVEVAVMSPTPSSTCYSLQPQSQARQSNVADSEKWPCKVCTYLNWPRSLRCVQCCTKRGGEAIERGKKDMDNEADGDRAGEALQALRISGSEENLANKPVQLIGATASHRLSLSRGIDDATHLNNLANASHNQSQSQHRQPVLQQQMQLQLQPQQQRESSSSAAVPPQQQKQCYVSKWACNSCTYENWPRSIKCSMCGKTREREISGSQNDLHASSSLNSQEENQQQLQQPNVDTVSVNNSFNKKHIYQLGSSETINNCDTLQERQERRQRQIRRQVDWQWLNACLGVVENNYSAVEAYLSCGGNPARSLTSTEIAALNRNSAFDVGHTLIHLAIRFHREEMLPMLLDQISGSGPGIKRVPSYVAPDLAADIRRHFANTLRLRKSGLPCHYVQKHATFALPAEIEELPIPIQEQLYDELLDRDAQKQLETPPPALNWSLEITARLSSRMFVLWNRSAGDCLLDSAMQATWGVFDRDNILRRALADTLHQCGHVFFTRWKEYEMLQASMLHFTLEDSQFEEDWSTLLSLAGQPGSSLEQLHIFALAHILRRPIIVYGVKYVKSFRGEDIGYARFEGVYLPLFWDQNFCTKSPIALGYTRGHFSALVPMEPFTRIDGRRDDVEDVTYLPLMDCELKLLPIHFLTQSEVGNEESMMRQWLDVCVTDGGLLVAQQKLSKRPLLVAQMLEEWLNHYRRIAQVITAPFIRRPQITHYSSDGDSDEE
notes: dTrbd, Drosophila deubiquitinase, full length; also called GST-dTrbd^FL; source: E. coli BL21, purified (Glutathione Sepharose 4B)
With B1, the binding result is “binds”.

Values taken from publication PMC9329959, “A Feedback Regulatory Loop Involving dTrbd/dTak1 in Controlling IMD Signaling in Drosophila Melanogaster” (Frontiers in Immunology, 2022).
